Source: US20170096478A1, “THERAPEUTIC AGENT FOR INFLAMMATORY DISEASE” (Josai University Corporation, priority 2012, published 2017)

Key:
[1] = system: lipopolysaccharide (LPS)-induced lethal sepsis; assay: Test Example 8-1: survival in LPS-induced lethal sepsis; type: in vivo, BALB/c mice
Experimental: (§1) BALB/c mice (bodyweight of 20 g to 30 g when starting the experiments, n=10) were raised in a plastic cage under SPF and thermo-hydrostat (22±1° C., 55±5%) conditions under 12-hour light-dark cycle. Foods and water were supplied ad libitum. Then, by intraperitoneally administering LPS to the mice at a dose of 40 mg/kg, lipopolysaccharide (LPS)-induced lethal sepsis as an inflammatory disease was induced in the same manner as Test Example 7. SSV mAb dissolved in physiological saline was intraperitoneally administered totally 3 times, i.e., at 30 minutes before, 6 hours after and 12 hours after the intraperitoneal administration of LPS, in an amount of 100 μg/dose in terms of the amount of SSV mAb. The survival of the animals thereafter was tested. To the control group, IgG (SIGMA) dissolved in physiological saline was administered in place of SSV mAb in the same manner.

histone H3 = assay: ELISA affinity for histone H3; type: binding; conditions: absorbance at 405 nm, 5 μg/mL antibody, compared with histone H1
Experimental: (§2) The Affinities between histone H1 or core histone and SSVmAb were determined by ELISA.
(§3) A 96 well microplate was coated with histone H1, H2A, H2B, H3 or H4. Each histone used was dissolved in 100 mM sodium carbonate buffer (pH 9.3). The plate was washed with PBS-tween 20 (0.05%), and blocked with 3% skim milk and 1% BSA for 1 hour. To each well, 5 μg/mL SSVmAb was added, and incubated for 1 hour. Bound SSVmAb was detected using peroxidase (HRP) conjugated anti mouse IgG1 Ab (SIGMA), and incubated for 1 hour. Bound SSVmAb was detected using the ABTS [2,2′-azino-bis(3-ethylbenzothiazoline-sulfonic acid)] substrate solution, and absorbance at 405 nm was measured using Multiskan Ascent (Thermo Fisher Scientific Inc., Waltham, Mass.).
(§4) After the end of the tests, binding assays of SSV mAb with histone H1, histone H3 and histone H4 were carried out by ELISA in the same manner as Test Example 2.

histone H1 = assay: ELISA affinity for histone H1; type: binding; conditions: absorbance at 405 nm; 5 μg/mL antibody; compared among histones
Experimental: as §2, §3, §4

[2] = system: lipopolysaccharide (LPS)-induced lethal sepsis; assay: Test Example 7: survival in LPS-induced lethal sepsis; type: in vivo, BALB/c mice
Experimental: as §1, with “n=6)” for “n=10)”, “Lipopolysaccharide (LPS)-induced lethal sepsis which is generally employed as an experimental sepsis model was induced” for “Then,”, “LPS” for “LPS to the mice”, “mg/kg.” for “mg/kg, lipopolysaccharide (LPS)-induced lethal sepsis as an inflammatory disease was induced in the same manner as Test Example 7.”

histone H2A = assay: ELISA affinity for histone H2A; type: binding; conditions: absorbance at 405 nm; 5 μg/mL antibody; compared with histone H1
Experimental: as §2, §3

[3] = system: lipopolysaccharide (LPS)-induced lethal sepsis; assay: Test Example 8-3: staining test of lung tissue; type: in vivo, BALB/c mice; conditions: after the end of Test Example 8
Experimental: as §1
After the end of Test Example 8, lung tissue sections were each obtained from […] of control group and SSV mAb-administered group, and stained by using hematoxylin and eosin stain (from Wako Pure Chemical Industries, Ltd.) according to the method conducted by Hasegawa et al. (Surg Res. 2012 May 1; 174(1):136-41.). Next, micrographs of the obtained samples were taken.
As a reference, micrographs of lung tissue slices from healthy rats were taken in the same manner.

[4] = system: lipopolysaccharide (LPS)-induced lethal sepsis; assay: Test Example 8-4: evaluation of congestion, edema, inflammation and bleeding; type: in vivo, BALB/c mice; conditions: vs control group
Experimental: as §1
After the end of Test Example 8, scores of congestion, edema, inflammation and bleeding were evaluated according to the method of Murakami et al. (Shock, 18 (2002), p. 236). In particular, magnified images of 24 visual fields under a microscope were subjected to observation. The degrees of deterioration of congestion, edema and inflammation in the SSV mAb-administered group and the control group were evaluated on a 5-point scale ranging from 0 to 4 (4 is the highest deterioration).

[5] = 70 hours after administration of LPS, p<0.05

B1: SSV mAb: monoclonal antibody (IgG1) produced by Mouse-Mouse hybridoma SSV-C 93-3 (NITE BP-972), raised against peptide … (SEQ ID NO:1)-KLH conjugate (antibody, V domains shown)
VH: EIQLQQSGAELVKPGASVKISCKASGYSFTGYNMNWVKQSHGKSLEWIGNINPYYGSTSYNQKFKGKATLTVDKSSSTAYMQLNSLTSEDSAVYYCARSPYYSNYWRYFDYWGQGTTLTVSS
VL: QIVLSQSPAILSASPGEKVTMTCRASSSVSYMHWYQQKPGSSPKPWIYATSNLASGVPARFSGSGSGTSYSLTISRVEAEDAATYYCQQWSSNPWTFGGGTKLEIK
survival rate ([1]; 24 hours after administration of LPS 40 mg/kg i.p., 100 μg/dose i.p. 3 times): 70% | survival rate relative to that of the control group [1, 5]: about 3.5 times | affinity for histone H3 (ELISA) (histone H3): binding capacity | affinity for histone H3 (ELISA) (histone H3; listed as SSVmAb): higher than the affinity for histone H1 | affinity for histone H1 (ELISA) (histone H1): binding capacity | cumulative survival rate ([2]; 70 hours after administration of LPS): 0.7 | survival rate ([2]; 70 hours after administration of LPS 40 mg/kg i.p., 100 μg/dose i.p. 3 times): 70% | survival rate relative to that of the control group [2, 5]: about 3.5 times | affinity for histone H2A (ELISA) (histone H2A): higher than the affinity for histone H1 | inflammation in lungs (hematoxylin and eosin stained lung tissue sections) [3]: not observed | score of congestion ([4]; 5-point scale 0 to 4): significantly lower | score of edema ([4]; 5-point scale 0 to 4): significantly lower | score of inflammation ([4]; 5-point scale 0 to 4): significantly lower | score of bleeding [4]: significantly lower
